This is an account of results in article PMC5289633.

In this test the target is Bio-SAP97 (SAP97 with N-terminal tag for in vivo biotinylation) (UniProt Q62696). Nature of the test: pull-down; streptavidin-sepharose pull-down of biotin-tagged SAP97 or PSD-95 from Triton X-100 extracts (TNE buffer, pH 7.5, 120 mM NaCl, 4°C) of co-transfected HEK293 or HEK293T cells; western blot. (A western blot detects proteins with antibodies after separation by electrophoresis.)
Sequence of UniProt Q62696 (Q62696 whole entry): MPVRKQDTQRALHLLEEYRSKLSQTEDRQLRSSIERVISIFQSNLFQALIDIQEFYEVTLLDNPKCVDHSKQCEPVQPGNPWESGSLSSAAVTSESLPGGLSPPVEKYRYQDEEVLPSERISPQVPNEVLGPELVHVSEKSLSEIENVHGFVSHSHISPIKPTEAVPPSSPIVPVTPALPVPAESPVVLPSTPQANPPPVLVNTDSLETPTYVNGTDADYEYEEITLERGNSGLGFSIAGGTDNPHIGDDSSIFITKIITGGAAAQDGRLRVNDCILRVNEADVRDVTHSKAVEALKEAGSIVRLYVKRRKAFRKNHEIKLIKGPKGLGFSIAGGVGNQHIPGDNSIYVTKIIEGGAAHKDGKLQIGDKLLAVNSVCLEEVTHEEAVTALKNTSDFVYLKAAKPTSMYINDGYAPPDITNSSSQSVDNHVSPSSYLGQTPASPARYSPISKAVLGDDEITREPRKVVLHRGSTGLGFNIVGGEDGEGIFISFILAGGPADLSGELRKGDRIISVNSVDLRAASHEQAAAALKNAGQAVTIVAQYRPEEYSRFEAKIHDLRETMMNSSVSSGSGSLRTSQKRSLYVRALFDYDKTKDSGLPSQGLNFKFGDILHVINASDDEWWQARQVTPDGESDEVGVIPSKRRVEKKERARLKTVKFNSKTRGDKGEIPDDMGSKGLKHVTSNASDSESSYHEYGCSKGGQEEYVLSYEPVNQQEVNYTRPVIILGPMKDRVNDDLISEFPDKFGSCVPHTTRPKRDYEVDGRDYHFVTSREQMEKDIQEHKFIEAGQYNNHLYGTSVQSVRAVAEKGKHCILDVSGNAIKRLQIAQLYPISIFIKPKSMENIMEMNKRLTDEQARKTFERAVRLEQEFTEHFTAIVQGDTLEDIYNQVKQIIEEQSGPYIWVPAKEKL

“N-terminally GFP-tagged GluA1 C893S mutant (receptor)” displayed a percent decrease in association against wt GluA1 of 60 to 70%.
